Reference: PMC3045311

Key:
[1] = biological target: Acrophialophora nainiana xylanases
[2] = biological target: Aspergillus niger xylanases
[3] = biological target: Acrophialophora nainiana xylanases; remark: listed apart in the source

Inhibition (%) of xylanase activity (oat spelt xylan, DNS reagent, Abs 540 nm; 60 μg xylanases, 5 μg CaclXIP, 12:1 w/w, 50°C, 30 min) [1]: 57%
Inhibition (%) of xylanase activity (oat spelt xylan, DNS reagent, Abs 540 nm; 60 μg xylanases, 5 μg CaclXIP, 12:1 w/w, 50°C, 30 min) [2]: 19.5%
Inhibition (%) of xylanase activity (oat spelt xylan, DNS reagent, Abs 540 nm; enzymes:inhibitor ratio 12:1 w/w) [3]: 56%
Substance: Coffea arabica Chitinase-like Xylanase Inhibitor Protein (natural protein)
